Results reported in paper PMC12475165 (Nature Communications, 2025).

Target: T1, EDC4 (endogenous, EBOV-infected cells) (UniProt Q6P2E9 1-1401)
T1 sequence: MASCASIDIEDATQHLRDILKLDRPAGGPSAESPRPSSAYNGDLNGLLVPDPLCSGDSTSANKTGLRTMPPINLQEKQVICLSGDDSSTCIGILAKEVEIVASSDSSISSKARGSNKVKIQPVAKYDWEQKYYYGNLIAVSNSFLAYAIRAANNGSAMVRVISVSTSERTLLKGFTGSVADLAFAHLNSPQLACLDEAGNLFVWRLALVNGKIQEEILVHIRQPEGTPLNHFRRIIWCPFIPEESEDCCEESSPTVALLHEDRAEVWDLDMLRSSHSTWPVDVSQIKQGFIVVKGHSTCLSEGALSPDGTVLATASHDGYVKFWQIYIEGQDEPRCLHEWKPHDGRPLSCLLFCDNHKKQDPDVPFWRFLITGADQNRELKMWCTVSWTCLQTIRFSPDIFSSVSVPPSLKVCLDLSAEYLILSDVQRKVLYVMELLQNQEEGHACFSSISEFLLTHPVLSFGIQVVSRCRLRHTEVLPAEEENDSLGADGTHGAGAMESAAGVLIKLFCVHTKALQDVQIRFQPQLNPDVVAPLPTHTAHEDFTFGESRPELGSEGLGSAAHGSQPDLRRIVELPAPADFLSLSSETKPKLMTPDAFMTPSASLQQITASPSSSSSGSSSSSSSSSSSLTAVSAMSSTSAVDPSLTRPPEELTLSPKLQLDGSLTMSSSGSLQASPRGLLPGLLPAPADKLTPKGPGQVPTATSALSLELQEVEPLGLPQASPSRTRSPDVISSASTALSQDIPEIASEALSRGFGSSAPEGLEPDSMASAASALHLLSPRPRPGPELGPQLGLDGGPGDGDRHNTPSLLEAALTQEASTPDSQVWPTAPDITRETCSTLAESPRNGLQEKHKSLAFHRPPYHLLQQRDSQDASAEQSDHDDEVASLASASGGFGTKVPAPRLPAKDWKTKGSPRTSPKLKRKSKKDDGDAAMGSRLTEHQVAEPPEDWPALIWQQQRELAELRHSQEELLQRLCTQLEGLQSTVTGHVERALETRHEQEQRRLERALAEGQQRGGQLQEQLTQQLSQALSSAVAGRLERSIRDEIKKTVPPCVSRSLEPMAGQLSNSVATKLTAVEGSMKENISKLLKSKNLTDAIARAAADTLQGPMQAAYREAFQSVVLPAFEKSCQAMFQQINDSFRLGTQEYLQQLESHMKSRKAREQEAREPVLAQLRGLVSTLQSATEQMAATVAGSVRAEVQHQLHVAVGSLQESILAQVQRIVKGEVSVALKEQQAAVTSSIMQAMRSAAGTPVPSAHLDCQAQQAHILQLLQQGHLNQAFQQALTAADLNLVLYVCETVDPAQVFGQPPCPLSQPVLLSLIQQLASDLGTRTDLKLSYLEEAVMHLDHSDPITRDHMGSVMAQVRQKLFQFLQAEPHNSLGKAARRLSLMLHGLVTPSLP
Assay: proximity ligation
Conditions: partners not purified

B1: VP35 made by EBOV in infected cells (natural protein)
chain: MTTRTKGRGHTAATTQNDRMPGPELSGWISEQLMTGRIPVSDIFCDIENNPGLCYASQMQQTKPNPKTRNSQTQTDPICNHSFEEVVQTLASLATVVQQQTIASESLEQRITSLENGLKPVYDMAKTISSLNRVCAEMVAKYDLLVMTTGRATATAAATEAYWAEHGQPPPGPSLYEESAIRGKIESRDETVPQSVREAFNNLNSTTSLTEENFGKPDISAKDLRNIMYDHLPGFGTAFHQLVQVICKLGKDSNSLDIIHAEFQASLAEGDSPQCALIQITKRVPIFQDAAPPVIHIRSRGDIPRACQKSLRPVPPSPKIDRGWVCVFQLQDGKTLGLKI
  PLA puncta per cell, fold over uninfected cells: 6 fold
